Data on 18 sequences can be found in the DeepSol protein solubility set.

The data set can be described thus: soluble on expression in E. coli; label from the status in PepcDB or PDB records.
In the case of “MGSSHHHHHHSSGLVPRGSHMHSVVQSVTDRIIARSKASREAYLAALNDARNHGVHRSSLSCGNLAHGFAACNPDDKNALRQLTKANIGIITAFNDMLSAHQPYETYPDLLKKACQEVGSVAQVAGGVPAMCDGVTQGQPGMELSLLSREVIAMATAVGLSHNMFDGALLLGICDKIVPGLLIGALSFGHLPMLFVPAGPMKSGIPNKEKARIRQQFAQGKVDRAQLLEAEAQSYHSAGTCTFYGTANSNQLMLEVMGLQLPGSSFVNPDDPLREALNKMAAKQVCRLTELGTQYSPIGEVVNEKSIVNGIVALLATGGSTNLTMHIVAAARAAGIIVNWDDFSELSDAVPLLARVYPNGHADINHFHAAGGMAFLIKELLDAGLLHEDVNTVAGYGLRRYTQEPKLLDGELRWVDGPTVSLDTEVLTSVATPFQNNGGLKLLKGNLGRAVIKVSAVQPQHRVVEAPAVVIDDQNKLDALFKSGALDRDCVVVVKGQGPKANGMPELHKLTPLLGSLQDKGFKVALMTDGRMSGASGKVPAAIHLTPEAIDGGLIAKVQDGDLIRVDALTGELSLLVSDTELATRTATEIDLRHSRYGMGRELFGVLRSNLSSPETGARSTSAIDELY”, the “soluble on expression in E. coli” value is recorded as “soluble”.
In the case of “SNAMPKRSKEDTEITIQKIMDAVVDQLLRLGYDKMSYTTLSQQTGVSRTGISHHFPKKTDFTAALDGRIFKMFIEHLEFEKGLDAFSQSWIKALEDSEFLAILRLLFHHIVTSESAHEFAANGIDRLYKMVESQFGSGGDKELEWLIGRSLIQMSK”, the “soluble on expression in E. coli” value is on record as “soluble”.
Regarding “MGSDKIHHHHHHMATKSLRRQDLEVHLGSTGQVVGRLYLGSGKRSAFSYDERWLRDARFFTLSPDLLPVLSVQHPQEVFFRALEDTAPDSWGERVIRRAHARLRQQDGETPPLEPVDFLMWVDDEARVGALRLFDPHAKVYLRSGATPGHVPPLVELDKVVQAARALEAGTETARDLQYLLGQGTSLGGARPKSSVRDTDGRLALGKFPSQADRRDVIRGEVLAMHLAAKAGIKVAAARVELIGGTAVAIIRRFDRTDDGGRIPYVSAATMLQSDGRDTVHAYTELVDVLLREGADPIADIHQLWRRLVLNFLICNTDDHLRNTGFLYDSRNHGWRLSPAFDLNPMPGDRRESKTWLTEDSGPIESRDMLMEGAPYFRLAAEEAAAIWTEVAQAVGSWRVVARGLGMQGTDLVDFEPAFA”, the “soluble on expression in E. coli” value is given as “not soluble”.
The entry for “MNYILGTILESKITGVEKAQINRLKLFKQHGISSKCVYVKWNPYSYTYAKQHQIENDVFTMYDYFQKAINYKKTKQVNWIQYWEKSCRYTLKFVENSNDVRIYDEEQFVMYAHFLDKQYHQLNYVNYFDHKRRKVKRELYDGRGFLSCSRILGEGQRIVLENYYTPNGEIVIQKYFDDIKGKNTLTKVILNEDQHQQFFDTEDELVQYFLHQLCKNNDQIILDRPHELGNVIAGLNQSIPVIVVLHSTHLSGAGNGIKSFYKTVFNNLTRYKAIVVSTEKQCQDISQYIENKIPVINIPVGYVANLKYQFDINQKEKNHIISIARLVENKQIKHQIEVIKQLVTKHPNIQLNIYGHGNGLSEYRQLVEDYHLSEHVKFHGFKTHINEEIAKAELMLSTSKMEGFGLAILESLSVGTPVISYDVDYGPSELIQDGFNGYLVPQGDINQMVEKVDQLLNNTQKLQQFSINSIESAQQYNATTISTKWQNILN” is “not soluble”; for “VLRSKSLCHDEIENLLDSDHRELIGDYSKAFLLQTVDGKHQDLKYISPETMVALLTGKFSNIVDKFVIVDCRYPYEYEGGHIKTAVNLPLERDAESFLLKSPIAPCSLDKRVILIFHCEFSSERGPRMCRFIRERDRAVNDYPSLYYPEMYILKGGYKEFFPQHPNFCEPQDYRPMNHEAFKDELKTFRLKTRSWAGERSRRELCSRLQDQ” it is “soluble”; for “MIPEEIYKILRKQRYQIDGHTAVKLCGWVRKKMLEDKNCYKSKFYGIETHRCIQCTPSVIWCQQNCIFCWRVLPRDIGIDISQIKEPKWEEPEVVYEKILAMHKRIIMGYAGVLDRVGEKKFKEALEPKHVAISLSGEPTLYPYLDELIKIFHKNGFTTFVVSNGILTDVIEKIEPTQLYISLDAYDLDSYRRICGGKKEYWESILNTLDILKEKKRTCIRTTLIRGYNDDILKFVELYERADVHFIELKSYMHVGYSQKRLKKEDMLQHDEILKLAKMLDENSSYKLIDDSEDSRVALLQNENRKINPKL” it is “soluble”.
The result for “MGDIHFIGSAANFFRSSTSDDWVRFHTFAEETLKGSQSLIALQWLVKVEPPQAETFTARMQQRFPEFTLYTVPKTGEIKYGFGTDDQAKYVLSDIYPLNYDNRKLLGFYSERERFKRILADIVVNRRPNVSDKVRLLQDGIDKSIVKDGMLVYHPVFSSEDDRSLLGVMVGVVRLSTYFEKLVQISVMEQDLDMRVIDTGFDSEDSPVLYQSPMWRADDEPKIERKLVLPNRDWVLEFELHQPINHSEELEHHHHHH” reads “not soluble”; that for “SSFKREGDDWSQLNVLKKRRVGDLLASYIPEDEALMLRDGRFACAICPHRPVLDTLAMLTAHRAGKKHLSSLKLFYGKKQTGKGTEQNPRQQNELKTESKTEAPLLTQTRIITQNALHRAPHYNSCCRRKHRPEAPAPSVSSPPLPTAEVQLQSAEISKEPEPRERSDAKESAALLASAPMSPTKRRVLNHYLTLRSSGWVPDGRGRWIKDENVEFDSDEEEPPDLPLD”, “soluble”.
Regarding “TEAAAQPHALPADAPDIAPERDLLSKFDGLIAERQKLLDSGVTDPFAIVMEQVKSPTEAVIRGKDTILLGTYNYMGMTFDPDVIAAGKEALEKFGSGTCGSRMLNGTFHDHMEVEQALRDFYGTTGAIVFSTGYMANLGIISTLAGKGEYVILDADSHASIYDGCQQGNAEIVRFRHNSVEDLDKRLGRLPKEPAKLVVLEGVYSMLGDIAPLKEMVAVAKKHGAMVLVDEAHSMGFFGPNGRGVYEAQGLEGQIDFVVGTFSKSVGTVGGFVVSNHPKFEAVRLACRPYIFTASLPPSVVATATTSIRKLMTAHEKRERLWSNARALHGGLKAMGFRLGTETCDSAIVAVMLEDQEQAAMMWQALLDGGLYVNMARPPATPAGTFLLRCSICAEHTPAQIQTVLGMFQAAGRAVGVIGLEHHHHHH”, the “soluble on expression in E. coli” value was “soluble”.
The entry for “MEYKPIRKVVSGNYAAAYAALHARVQVVAAYPITPQTSIIEKIAEFIANGEADIQYIPVESEHSAMAACIGASATGARTFTATSAQGLALMHEMLHWAAGARLPIVMVDVNRAMAPPWSVWDDQTDSLSQRDTGWMQFYAENNQEVYDGVLMAYKVAETVNVPAMVVESAFILSHTYDVVEMIPQELVDEFLPPRKPLYSLANFDEPIAVGALATPNDYYEFRYKLAKAHEEAKKVIKEVGKEFGERFGRDYSQMIETGYIDDADFVFMGMGSLMGTVKEAVDLLRKEGYKVGYAKVRWFRPFPKEELVEIAESVKGIAVLDRNFSFGQEGILFTESKGALYNSSAHPLMKNYIVGLGGRDVTVKDIKAIADDMKKVIESGKVDKEVVWYHLKR” is “not soluble”; for “KNVNRVLSAEALKPGMLLTGTVSSLEDHGYLVDIGVDGTRAFLPLLKAQEYIRQKNKGAKLKVGQYLNCIVEKVKGNGGVVSLSVGHSEVSTAIATEQQSWNLNNL” it is “soluble”.
Turning to “MGHHHHHHSHMRGRIYLEPPTMRKKRLLDRKVLLKSDSPTGDVLLDETLKHIKATEPTETVQTWIELLTGETWNPFKLQYQLRNVRERIAKNLVEKGILTTEKQNFLLFDMTTHPVTNTTEKQRLVKKLQDSVLERWVNDPQRMDKRTLALLVLAHSSDVLENVFSSLTDDKYDVAMNRAKDLVELDPEVEGTKPSATEMIWAVLAAFNKS”, the “soluble on expression in E. coli” value is listed as “not soluble”.
As for “MGHHHHHHSHMKTLEAHKDPHKEVVRSAEEAASVLATSISPEQCIKVLCPIIQTADYPINLAAIKMQTKVIERVSKETLNLLLPEIMPGLIQGYDNSESSVRKACVFCLVAVHAVIGDELKPHLSQLTGSKMKLLNLYIKRAQTGSGGADPTTDVSGQS”, the “soluble on expression in E. coli” value is recorded as “not soluble”.
The entry for “MVDEDKKSGTRVFKKTSPNGKITTYLGKRDFIDRGDYVDLIDGMVLIDEEYIKDNRKVTAHLLAAFRYGREDLDVLGLTFRKDLISETFQVYPQTDKSISRPLSRLQERLKRKLGANAFPFWFEVAPKSASSVTLQPAPGDTGKPCGVDYELKTFVAVTDGSSGEKPKKSALSNTVRLAIRKLTYAPFESRPQPMVDVSKYFMMSSGLLHMEVSLDKEMYYHGESISVNVHIQNNSNKTVKKLKIYIIQVADICLFTTASYSCEVARIESNEGFPVGPGGTLSKVFAVCPLLSNNKDKRGLALDGQLKHEDTNLASSTILDSKTSKESLGIVVQYRVKVRAVLGPLNGELFAELPFTLTHSKPPESPERTDRGLPSIEATNGSEPVDIDLIQLHEELEPRYDDDLIFEDFARMRLHGNDSEDQPSPSANLPPSLL” is “not soluble”; for “MSLPNRLLITNASIAKMDEPDDGYGLMMHAALLIQDEKIEWLGSVSDIPAGLGDPEELDACGRLLTPALIDCHTHIVHGGNRAREFEMRLEGASYEEIARAGGGIISTVTATRETDEAALLQDALKRADSLIAEGVSLIEIKSGYGLDVETELKMLRVARAIERERSVRVVTSFLGAHAVPKGADADFYIDKVCIPALEAAHKEGLVDAVDGFCEGIAFDTVQMGRLFERARQLDIPVKLHAEQLSNIGGTKLAASYNALSVDHVEYADKTDIAAMAKAGSVAVLLPGAFYTLHETQKPLVEAFRSESVPMAVATDWNPGSSPMGSLLLAMNMSCTLFGLTPVEALAGTTRNAARALGLKDCGIVAPGKRADLAIWDVLEPAELSYRFGVNPLHRRIFGGRLEGHHHHHH” it is “soluble”.
The result for “MLTAQTKNTQTLMPLTERVNVQADSARINQIIDGCWVAVGTNKPHAIQRDFTNLFDGKPSYRFELKTEDNTLEGYAKGETKGRAEFSYCYATSDDFKGLPADVYQKAQITKTVYHHGKGACPQGSSRDYEFSVYIPSSLDSNVSTIFAQWHGMPDRTLVQTPQGEVKKLTVDEFVELEKTTFFKKNAGHEKVVRLDKQGNPMKDKNGKPVYKAGKLNGWLVEQGGYPPLAFGFSGGLFYIKANSDRKWLTDKDDRCNANPGKTPVMKPLTSEYKASTIAYKLPFADFPKDCWITFRVHIDWTVYGKEAETIVKPGMLDVRMDYQEQGKKVSKHIVNNEKILIGRNDEDGYYFKFGIYRVGDSTVPVCYNLAGYSERLE” reads “soluble”; that for “MSLKPTDLNLIPIFIAIYEERNLSRAAARLDITQPAVSKALARLRDIYDEPLFHRSSSGVEPTSFAVDIYPAMVAAIKNFTSTLSASVEFDPKVSNRIFSIACVSILSYELLPQLMKQIHELAPNIALEVHPLFTEDYESDLRLQRYDLIIDLAPRGRTVLKVEPVITERLMVVCNKDHPRIAESISQEQFFEEEHVAVSQWQSRKSMLSAEDIVDLDKRKIMYRAAGALEMLPVICGSEYIGLMPESMIKLFSNTYHVKALPFPFDVTTYDLCTIWHPSRTNESAHQWLRAQIKHAGKVIKEGHHHHHH”, “soluble”; that for “MKKGIDIGGTFIKVLWEDGKKEKHYIKDLKKDREALMEKIREVIKAGNPSGVGIAVAGFTSLNGIVYKSPNIPALDKTDFRKVLEDINIPFVVGNDVNLGAFGEWYYDYRDSKILLLVAVGTGLGTGLVYKGEVFFGVCGSALEMGHHTVKKGGELCNCGRKGCWEAYCSSYAIEREYKKLTGRTLKDYEIAEKAKEGEEEALKVVESFKDYLITGLMNGVHIFNPDRIVLAGGVIETFKEFLRDVPEKVKEISEELPALCLKISFSRAGEFMGARGALAYALKYLLEHHHHHH”, “soluble”.
